Laboratory results from patent US20130280763A1 (IMBA INSTITUT FUR MOLEKULARE BIOTECHNOLOGIE, published 2013).
Residue numbers refer to the chain shown, from its start.

T1: HSPC117, Q9Y3I0
T1 chain: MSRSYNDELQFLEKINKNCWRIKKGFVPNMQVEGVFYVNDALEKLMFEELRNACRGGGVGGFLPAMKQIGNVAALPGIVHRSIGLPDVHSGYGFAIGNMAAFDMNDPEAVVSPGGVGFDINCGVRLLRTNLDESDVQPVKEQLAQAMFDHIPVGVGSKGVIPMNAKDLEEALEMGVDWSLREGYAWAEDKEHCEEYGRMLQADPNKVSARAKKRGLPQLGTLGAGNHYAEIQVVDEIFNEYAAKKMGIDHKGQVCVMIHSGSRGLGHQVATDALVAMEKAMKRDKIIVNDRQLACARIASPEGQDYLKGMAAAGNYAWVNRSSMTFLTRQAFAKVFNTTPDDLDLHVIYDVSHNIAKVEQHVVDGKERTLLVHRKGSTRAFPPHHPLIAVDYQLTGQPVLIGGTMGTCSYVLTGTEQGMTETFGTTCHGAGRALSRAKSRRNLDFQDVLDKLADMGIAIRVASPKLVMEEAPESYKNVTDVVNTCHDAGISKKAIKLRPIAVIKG

T2: recombinant Archease D39A
T2 chain: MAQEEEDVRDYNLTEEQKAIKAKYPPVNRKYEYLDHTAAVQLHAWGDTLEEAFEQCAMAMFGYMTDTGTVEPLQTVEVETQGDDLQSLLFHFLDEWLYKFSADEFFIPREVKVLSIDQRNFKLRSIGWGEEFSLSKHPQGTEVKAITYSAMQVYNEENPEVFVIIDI

T3: recombinant Archease K144A
T3 chain: T2 chain with A39D, K144A

T4: recombinant wild-type Archease
T4 chain: T2 chain with A39D

T5: DDX1 (human, UniProt Q92499 1-740)
T5 construct: Endogenous protein that co-purifies from cell extract
T5 sequence (looked up): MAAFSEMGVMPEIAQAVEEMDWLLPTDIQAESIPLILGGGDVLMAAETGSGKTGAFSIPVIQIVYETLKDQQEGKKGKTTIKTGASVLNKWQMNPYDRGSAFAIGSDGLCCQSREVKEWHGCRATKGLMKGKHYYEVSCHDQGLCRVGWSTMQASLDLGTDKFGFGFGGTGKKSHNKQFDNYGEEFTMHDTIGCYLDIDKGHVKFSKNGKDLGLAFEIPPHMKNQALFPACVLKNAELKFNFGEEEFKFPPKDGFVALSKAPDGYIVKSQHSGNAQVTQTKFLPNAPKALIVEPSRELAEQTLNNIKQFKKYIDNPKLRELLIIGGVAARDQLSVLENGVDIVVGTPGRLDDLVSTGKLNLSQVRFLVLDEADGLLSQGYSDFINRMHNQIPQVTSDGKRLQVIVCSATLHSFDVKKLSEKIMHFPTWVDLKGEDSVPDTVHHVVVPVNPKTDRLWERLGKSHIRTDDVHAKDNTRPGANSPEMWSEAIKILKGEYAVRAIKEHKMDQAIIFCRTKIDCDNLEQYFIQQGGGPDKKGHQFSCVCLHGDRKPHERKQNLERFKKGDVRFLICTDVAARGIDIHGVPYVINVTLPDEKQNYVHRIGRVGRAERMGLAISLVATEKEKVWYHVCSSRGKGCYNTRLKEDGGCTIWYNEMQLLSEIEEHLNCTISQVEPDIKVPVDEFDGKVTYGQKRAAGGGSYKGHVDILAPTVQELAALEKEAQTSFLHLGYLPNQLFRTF

T6: ASW (human, UniProt Q9BVC5 1-232, limits assumed)
T6 construct: Endogenous protein that co-purifies from cell extract
T6 sequence (looked up): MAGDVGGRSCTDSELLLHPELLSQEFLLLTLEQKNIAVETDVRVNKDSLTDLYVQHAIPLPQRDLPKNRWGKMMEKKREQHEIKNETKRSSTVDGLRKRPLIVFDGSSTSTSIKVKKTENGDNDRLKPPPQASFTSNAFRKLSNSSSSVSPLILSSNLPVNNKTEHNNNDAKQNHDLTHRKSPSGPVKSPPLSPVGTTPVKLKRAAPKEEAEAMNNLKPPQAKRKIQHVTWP

B1: Archease (other)
chain: AQEEEDVRDYNLTEEQKAIKAKYPPVNRKYEYLDHTADVQLHAWGDTLEEAFEQCAMAMFGYMTDTGTVEPLQTVEVETQGDDLQSLLFHFLDEWLYKFSADEFFIPREVKVLSIDQRNFKLRSIGWGEEFSLSKHPQGTEVKAITYSAMQVYNEENPEVFVIIDI
notes: Endogenous untagged Archease in the cells from which FLAG-HSPC117 was purified
B2: FLAG-DDX1 (protein)
chain: T5 sequence (looked up)
B3: FLAG-tagged HSPC117 (enzyme, human, UniProt Q9Y3I0 1-505, looked up)
chain: T1 chain
notes: also called FLAG-HSPC117; FLAG-RTCB; not shown: FLAG tag
B4: CGI-99 (other, human, UniProt Q9Y224 1-244, looked up)
chain: MFRRKLTALDYHNPAGFNCKDETEFRNFIVWLEDQKIRHYKIEDRGNLRNIHSSDWPKFFEKYLRDVNCPFKIQDRQEAIDWLLGLAVRLEYGDNAEKYKDLVPDNSKTADNATKNAEPLINLDVNNPDFKAGVMALANLLQIQRHDDYLVMLKAIRILVQERLTQDAVAKANQTKEGLPVALDKHILGFDTGDAVLNEAAQILRLLHIEELRELQTKINEAIVAVQAIIADPKTDHRLGKVGR
notes: Endogenous protein that co-purifies from cell extract
B5: FLAG-tagged Archease (other)
chain: T2 chain with A39D
notes: also called FLAG-Archease; not shown: FLAG tag

How the values were obtained:
FLAG-tagged HSPC117 [1] = target: B3; experiment: FLAG affinity purification at 150 mM NaCl, Coomassie stained gel (FIG. 4A)
Description: (§1) A) Coomassie Blue stained preparations of FLAG-tagged Archease and HSPC117 affinity purified at 150 mM NaCl. B) RNA ligase activity assay of FLAG-HSPC117 and FLAG-Archease using pre-cleaved tRNA substrates. Extracts of HEK 293 cells were used as a negative control. * Indicates unspecific products.
(§2) Stable cell lines expressing a FLAG-tagged version of Archease and HSPC117 were generated to perform immuno-precipitations. Fluted FLAG-Archease was assayed for tRNA ligation in parallel with FLAG-HSPC117, which contains the entire tRNA ligase complex. […] RNA ligase activity was only detectable in reactions containing affinity-purified RNA ligase complex but not FLAG-tagged Archease (FIG. 4B).

HSPC117, Q9Y3I0 = target: T1, HSPC117, Q9Y3I0
[2] = target: T2, recombinant Archease D39A
[3] = target: T3, recombinant Archease K144A
[4] = target: T4, recombinant wild-type Archease
DDX1 [5] = target: T5, DDX1; experiment: FLAG affinity purification, co-purifying proteins on a gel (FIG. 1A)
FLAG-tagged HSPC117 [6] = target: B3; experiment: as above
DDX1 [7] = target: T5, DDX1; experiment: FLAG affinity purification at 150 mM NaCl, Coomassie stained gel (FIG. 4A)
Description: as §1, §2

ASW = target: T6, ASW; experiment: as above
Description: as §1, §2

CGI-99 = target: B4; experiment: as above
Description: as §1, §2

Binder: B1
binding result (FLAG-tagged HSPC117 [1]): no binding

Binder: B2
Xbp1 ligation assay using FLAG-IPs (HSPC117, Q9Y3I0): ligation activity in FLAG-HSPC117 and FLAG-DDX1 IPs were observed

Binder: B3
ligation of Xbp1 RNA minimal substrates [2]: Addition of recombinant wild-type Archease but not its mutagenized versions strongly stimulated ligation of Xbp1 RNA minimal substrates
ligation of Xbp1 RNA minimal substrates [3]: Addition of recombinant wild-type Archease but not its mutagenized versions strongly stimulated ligation of Xbp1 RNA minimal substrates
ligation activity of affinity purified human tRNA ligase complex (pre-cleaved tRNA substrates, linear intron) [4]: addition of recombinant Archease boosts ligation activity to a great extent (including circularization of the intron)
ligation of Xbp1 RNA minimal substrates [4]: Addition of recombinant wild-type Archease but not its mutagenized versions strongly stimulated ligation of Xbp1 RNA minimal substrates
binding result (DDX1 [5]): binds

Binder: B4
binding result (FLAG-tagged HSPC117 [6]): binds

Binder: B5
binding result (DDX1 [7]): no binding
binding result (ASW): no binding
binding result (CGI-99): no binding
